# Measurements: patent US20230270861A1, “Inhibitors of the Artemin Pathway for Treatment of Cancer” (The University of Chicago, priority 2020, published 2023)
# B1: artemin: Recombinant mouse artemin (1085-AR) from R&D Systems; neurotropic factor of the GDNF family (protein)
# chain: AGTRSSRARTTDARGCRLRSQLVPVSALGLGHSSDELIRFRFCSGSCRRARSQHDLSLASLLGAGALRSPPGSRPISQPCCRPTRYEAVSFMDVNSTWRTVDHLSATACGCLG
# Experiments:
# LLC tumor = assay: Tumor growth of LLC tumor-bearing mice treated with IR or anti-PD-L1 plus test agent; assay type: in vivo, mouse; details: LLC tumor-bearing B6 mice; agent combined with 20 Gy IR or anti-PD-L1
# Experimental: Tumor models and treatments. 1×10^6 MC38, LLC, or B16-SIY tumor cells were subcutaneously injected into the flank of mice. On day 10 after tumor inoculation, tumors were either irradiated with one dose of 20 Gy or mice received sham treatment. For anti-PD-L1 treatment experiments, 200 μg anti-PD-L1 (10F.9G2) or isotype control was given by i.p. every three days for a total of four times starting on day 10 after tumor inoculation. For type I IFN blockade experiments, 200 μg anti-IFNAR1 were intratumorally injected on days 0 and 2 after irradiation. For CD4 or CD8 T cell depletion experiments, 200 μg anti-CD4 or anti-CD8 mAb was delivered four times by i.p. injection every 3 days starting 1 day before therapies. Artemin-neutralizing antibody was delivered i.t. at 1 μg/mouse starting on day of irradiation, every 2 days for 7 doses. For Ter-cell depletion, anti-ter119 was injected i.p. at 20 μg/mouse every 2 days for 4 doses. For Ter-cell or artemin treatment groups, mice were administered 1×10^7 purified Ter cells i.v. every other day for a total of three doses, or mice were treated with 0.5 μg/mouse artemin i.t. every other day starting on day 0 of therapies throughout the studies. For EPO treatment groups, mice were treated with 20 U/mouse EPO i.v. every other day throughout the studies, starting on day 0 of the therapies. IFN-γ was administered through intrasplenic injection on day 15 post tumor implantation at 2 μg/mouse for 1 dose. LOXO-292 was administered by oral gavaging at 100 μg/mouse/day throughout the entire studies, starting on day 0 of the therapies. Spleens were harvested on day 20 or at indicated times post-inoculation for analysis of spleen size or splenic cells. Tumor size was monitored and calculated with the formula for area (length×width).
# MC38 cells = assay: Colony formation assay of irradiated MC38 cells; assay type: cell-based, mouse; details: 0, 1 or 3 Gy; 100 ng/mL artemin
# Experimental: FIG. 40. Colony formation assay of MC38 cells treated with 0, 1, or 3 Gy irradiation. MC38 cells were either co-cultured with 2×10^6 Ter-cells (left) sorted from spleens of tumor-bearing mice, or treated with 100 ng/mL artemin (right). Representative data are shown from three experiments. Data are represented as mean±SD. *p<0.05, **p<0.01, and ***p<0.001.
# MC38-OTI-zsGreen cells = assay: CD8+ T cell mediated killing (apoptosis) of MC38-OTI-zsGreen cells; assay type: cell-based, mouse; details: 100 ng/mL artemin for 6 h
# Experimental: FIGS. 41A-41B. (FIG. 41A) Apoptosis of MC38 cells as analyzed by flow cytometry. 1×10^5 MC38-OTI-zsGreen cells were co-cultured with 2×10^5 CD8^+ T cells purified from OTI mice in 96-well U bottomed plates. Tumor cells were either co-cultured with 2×10^5 Ter-cells sorted from spleens of tumor-bearing mice or treated with 100 ng/mL artemin for 6 h. Representative data are shown from three experiments. Data are represented as mean±SD. *p<0.05, **p<0.01 and ***p<0.001. (FIG. 41B) Apoptosis of MC38 cells was analyzed by flow cytometry. 1×10^5 MC38-OTI-zsGreen cells were co-cultured with 2×10^5 CD8+ T cells purified from OTI mice in 96-well U bottom plates. Tumor cells were either co-cultured with 2×10^5 Ter-cells sorted from spleen of tumor-bearing mice or treated with 100 ng/mL artemin (ARTN) for 6 h. Representative data are shown from two or three experiments conducted with 3-5 mice or samples per group.
# CD8 T cells = assay: In vitro CD8 T cell treatment with artemin; assay type: cell-based, mouse; details: 24 hours
# Experimental: (§1) FIGS. 71A-71I. […] (FIGS. 71A-71E) CD8 T cells were purified from WT spleen and treated with recombinant artemin for 24 hours (150 ng/mL for FIGS. 71B, 71C, 71D, and 71E). T proliferation was examined (FIG. 71A), and the indicated effector molecules were analyzed by flow cytometry (FIGS. 71B, 71C, and 71D) and q-PCR (FIG. 71E). (FIGS. 71F-71I) MC38 murine colon cancer tumors were treated with artemin (i.t.), and single cell suspensions of tumors were stained with indicated markers and examined by flow cytometry (FIGS. 71F, 71G, 71H, and 71I).
# In vitro testing: CD8 T cell treatment with artemin. CD8 T cells were isolated from spleens of naïve mice. CD8 T cells were cultured with T cell activation beads for 3 days and labeled with DNA dye cellTrace violet, followed by co-culturing with 150 ng/mL recombinant artemin for 24 hours. T cells were then washed and stimulated by stimulation cocktail and protein transport cocktail for 6 hours before being subjected to intracellular antibody staining.
# [1] = system: MC38 murine colon cancer tumors; assay: In vivo MC38 murine colon cancer treatment with artemin (i.t.), flow cytometry of tumor cells; parameters: species or system mouse
# Experimental: as §1
# FIGS. 72A-72C. […] MC38 tumor were digested into single cell suspension and stained with markers that characterize T cells, DCs, and MDSCs. Flow cytometry was performed. […] (FIG. 72B) Changes in CD4 T cells.
# In vivo testing: MC38 murine colon cancer treatment with artemin. Established MC3 8 murine colon cancer tumors were treated with artemin by intra-tumoral injection. Tumors were digested into single cell suspension, stimulated and stained with intracellular antibodies. Cells were analyzed by flow cytometry.
# [2] = system: CD8 T cells and bone marrow derived MDSCs; assay: qPCR of possible artemin receptors in CD8 T cells and MDSCs co-cultured with artemin; assay type: cell-based, mouse; details: co-culture with artemin
# Excerpt: (§2) FIGS. 73A-73D. Study of the effects of artemin and radiation on mRNA expression of possible artemin receptors in different immune cells. (FIG. 73A) mRNA level of known GDNF receptors in CD8+ T cells after co-culture with artemin. (FIG. 73B) mRNA level of known GDNF receptors in MDSCs (CD11b+Ly6C+) cells. GFRα1, GFRα3 and NCAM expression in DC (FIG. 73C) and natural killer (NK) cells (FIG. 73D) in tumors responding to artemin or/and radiation treatments. R1, GFRα1; R3, GFRα3.
# Quantitative PCR (qPCR). Expression of possible artemin receptors GFRα1 (primers: SEQ ID NOs: 5, 6), GFRα3 (primers: SEQ ID NOs: 7, 8), Syndecan 3 (primers: SEQ ID NOs: 9, 10), NCAM (primers: SEQ ID Nos: 11, 12), and RET (SEQ ID Nos: 13, 14) was analyzed by qPCR in CD8 T cells and bone marrow derived MDSCs during co-culture with artemin.
# [3] = system: Lewis lung carcinoma (LLC) tumors; assay: Flow cytometry of GFRα1, GFRα3 and NCAM in LLC tumors treated with artemin and/or IR; assay type: in vivo, mouse
# Excerpt: as §2
# Radiation (IR) treatment analysis. We treated established Lewis lung carcinoma (LLC) tumors with control, artemin, IR, and artemin+IR (20 Gy IR). Flow cytometry with staining of GFRα1, GFRα3 and NCAM receptors was performed.
molecule,measurement,setting,value
B1,Tumor growth: influence on the therapeutic effect of IR and PD-L1 blockade,LLC tumor,diminished the anti-tumor effects of IR and PD-L1 blockade
same,Radio-resistance of MC38 tumor cells (colony formation),MC38 cells,increased the radio-resistance
same,CD8+ T cell mediated killing of tumor cells,MC38-OTI-zsGreen cells,impaired
same,CD8 T cell proliferation,CD8 T cells; 200 ng/mL,reduced CD8 T cell proliferation
same,"Production of IFN-γ, granzyme B and TNFα in T cells (protein and RNA level)",CD8 T cells,decreases in production
same,CD4 T helper cell numbers,[1],not significantly changed
same,PD-L1 expression on dendritic cells (CD11C+) and MDSCs (CD11b+Ly6C+),[1],induced PD-L1 expression
same,Treg percentage in CD4 T cells,[1],significantly increased
same,Frequency of total CD8 T cell among CD45+ cells,[1]; artemin i.t.,did not alter frequency
same,IFN-γ production in intratumoral T cells,[1]; artemin i.t.,not significant
same,Production of granzyme B and TNFα proteins in intratumoral T cells,[1]; artemin i.t.,significantly reduced
same,"Expression of exhaustion markers PD-1, LAG3 and TIM3",[1]; intratumoral T cells,did not change the expression
same,GFRα1 mRNA in MDSC cells,[2],induction of GFRα1
same,GFRα3 mRNA in CD8 T cells,[2],Induction of GFRα3
same,GFRα3 expression on NK cells,[3],induces GFRα3 expression
